± gives the standard error. For part of these data: Fewer inactive variants are shown than the library holds.
B1: glmS ribozyme (parent)
chain: AUAAAAGCGCCAGAACUACAGAAAUGUAGUUGACGAGGAGGAGGUUUAUCGAAUUUUCGGCGGAUGCCUCCAAA

How the values were obtained:
Settings in all cases: with glucosamine-6-phosphate
glucosamine-6-phosphate [1] = variants of: B1; assay: kcat; higher = faster cleavage; RNA array
In short: (§1)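 E. coli RNA polymerase transcribed barcoded ribozyme variants in situ on sequenced MiSeq chips, which were tracked via a hybridised Cy3 probe at 37 °C. Tiles were imaged over ~14 h after glucosamine-6-phosphate (40 μM to 10 mM) in HEPES/KCl/Mg(OAc)2 buffer was flowed in. Normalised per-tile medians were fit to one- or two-exponential decays for kobs, and kcat and KM came from weighted Michaelis–Menten fits.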

glucosamine-6-phosphate [2] = variants of: B1; assay: self-cleavage kobs at 2500 uM GlcN6P; higher = faster cleavage; RNA array
In short: as §1

glucosamine-6-phosphate [3] = variants of: B1; assay: self-cleavage kobs at 40 uM GlcN6P; higher = faster cleavage; RNA array
In short: as §1

glucosamine-6-phosphate [4] = variants of: B1; assay: self-cleavage kobs at 160 uM GlcN6P; higher = faster cleavage; RNA array
In short: as §1

glucosamine-6-phosphate [5] = variants of: B1; assay: self-cleavage kobs at 640 uM GlcN6P; higher = faster cleavage; RNA array
In short: as §1

glucosamine-6-phosphate [6] = variants of: B1; assay: KM; higher = weaker cofactor use; RNA array
In short: as §1

glucosamine-6-phosphate [7] = variants of: B1; assay: self-cleavage kobs at 10000 uM GlcN6P; higher = faster cleavage; RNA array
In short: as §1

Variant	kcat (glucosamine-6-phosphate [1]) [s⁻¹]	self-cleavage kobs at 2500 uM GlcN6P (glucosamine-6-phosphate [2]) [s⁻¹]	self-cleavage kobs at 40 uM GlcN6P (glucosamine-6-phosphate [3]) [s⁻¹]	self-cleavage kobs at 160 uM GlcN6P (glucosamine-6-phosphate [4]) [s⁻¹]	self-cleavage kobs at 640 uM GlcN6P (glucosamine-6-phosphate [5]) [s⁻¹]	KM (glucosamine-6-phosphate [6]) [µM]	self-cleavage kobs at 10000 uM GlcN6P (glucosamine-6-phosphate [7]) [s⁻¹]
C50G A53G	4.4e-05 ± 2.2e-05	3.81e-05 ± 1.5e-05					
G32C A53C	3.63e-05 ± 2.4e-06		< 1e-05	< 1e-05	< 1e-05		
G32C A53U	0.000101 ± 5.9e-06	2.59e-05 ± 6.8e-06	< 1e-05	< 1e-05		7510 ± 930	5.79e-05 ± 5e-06
A15U U69G	5.2e-05 ± 1.9e-05	6.85e-05 ± 2.1e-05		4.3e-05 ± 1.3e-05			
U54G U69A	0.000109 ± 1.4e-05	9.9e-05 ± 1.8e-05	5.13e-05 ± 1.4e-05		0.000146 ± 3e-05		0.000103 ± 1.9e-05
A14G U31A C67G	0.00052 ± 0.00021	0.000368 ± 0.00011		0.000163 ± 3.6e-05	0.000237 ± 6e-05		0.000966 ± 0.0003
G29A G66U	0.000177 ± 5.1e-05	6.95e-05 ± 1.9e-05			6.51e-05 ± 2e-05		0.00015 ± 1.9e-05
C58U C67G	3.65e-05 ± 2.5e-06	3.68e-05 ± 1.4e-05			3.77e-05 ± 1.5e-05		3.45e-05 ± 9.2e-06
U31G C58A	0.000195 ± 2.1e-05	9.47e-05 ± 1.4e-05			5.23e-05 ± 1.2e-05	2240 ± 600	0.000163 ± 1.7e-05
A39U A48U	0.000306 ± 1.3e-05	0.000201 ± 2.9e-05			8.14e-05 ± 9.1e-06	1710 ± 170	0.000257 ± 2.2e-05
U65A C68A	8.88e-05 ± 1.5e-05	0.00015 ± 2.2e-05		5.78e-05 ± 1.6e-05	8.74e-05 ± 1.1e-05		7.53e-05 ± 8.6e-06
C34A G38C	< 1e-05				< 1e-05		
G38C A52C	< 1e-05		< 1e-05	< 1e-05			< 1e-05
C50U A64G	0.000283 ± 5e-05	5.38e-05 ± 7.8e-06			2.41e-05 ± 1e-05		0.000141 ± 1.7e-05
U31G C34A G37U C67U	3.45e-05 ± 1.2e-05						
C10A U57G	< 1e-05		< 1e-05				
G37C G38U	< 1e-05	< 1e-05	< 1e-05		< 1e-05		
G13A G59A	< 1e-05						
G9U C61G	0.000192 ± 1.7e-05	9.21e-05 ± 1.7e-05	< 1e-05		4.57e-05 ± 1.2e-05	2350 ± 460	0.00016 ± 2.5e-05

Variant	kcat (glucosamine-6-phosphate [1]) [s⁻¹]	self-cleavage kobs at 2500 uM GlcN6P (glucosamine-6-phosphate [2]) [s⁻¹]	self-cleavage kobs at 40 uM GlcN6P (glucosamine-6-phosphate [3]) [s⁻¹]	self-cleavage kobs at 160 uM GlcN6P (glucosamine-6-phosphate [4]) [s⁻¹]	self-cleavage kobs at 640 uM GlcN6P (glucosamine-6-phosphate [5]) [s⁻¹]	KM (glucosamine-6-phosphate [6]) [µM]	self-cleavage kobs at 10000 uM GlcN6P (glucosamine-6-phosphate [7]) [s⁻¹]
A42G U46C	0.00159 ± 0.00025	0.00137 ± 0.00023	5.01e-05 ± 1.5e-05	0.000237 ± 4.5e-05	0.000597 ± 9.9e-05	1020 ± 260	0.00122 ± 0.00028
U57C C67G	2.59e-05 ± 3.7e-06	3.12e-05 ± 1.1e-05	< 1e-05				2.21e-05 ± 8.5e-06
A42G A64U	0.000207 ± 1.6e-05	0.000104 ± 2.3e-05				2880 ± 600	0.000158 ± 2.2e-05
C11A U30A C50U	2.21e-05 ± 3.2e-06						
U30C G41A	1.28e-05 ± 1.8e-06				< 1e-05		
G13A C68G	1.81e-05 ± 5e-06						
G29A G40U	0.000248 ± 5.6e-05	0.000207 ± 2.8e-05			8.95e-05 ± 1.9e-05		0.000182 ± 4e-05
A6C U55A	9.15e-05 ± 2.5e-05	7.01e-05 ± 1.6e-05					7.27e-05 ± 1.2e-05
U31A G32C	0.000234 ± 1.1e-05	0.000141 ± 3e-05			5.55e-05 ± 1.8e-05	1950 ± 290	0.000194 ± 2.1e-05
A15U C16G C50G A52G	1.88e-05 ± 5.2e-06						
A14C U45G	0.00127 ± 0.00013	0.000606 ± 9.4e-05		6.63e-05 ± 1.5e-05	0.000181 ± 2.6e-05	3410 ± 600	0.000933 ± 9.1e-05
A52C C71U	1.4e-05 ± 5.1e-07		< 1e-05			1650 ± 280	
A12G C67G C68A	6.18e-05 ± 2.3e-05	6.87e-05 ± 1.8e-05		6.68e-05 ± 1.8e-05	0.000113 ± 2.6e-05		
C61A C67A	6.65e-05 ± 1.4e-05	7.72e-05 ± 1.8e-05		5.31e-05 ± 1.5e-05	5.15e-05 ± 1.8e-05		
A42U U55G	0.000182 ± 1.6e-05	0.000164 ± 2.3e-05		5.02e-05 ± 1.6e-05	8.8e-05 ± 1.4e-05	577 ± 150	0.000167 ± 2.3e-05
G41U U69C	4.52e-05 ± 7.4e-06	3.82e-05 ± 1.3e-05					
G41A U49G	3.79e-05 ± 6.4e-06	3.9e-05 ± 1e-05					3.34e-05 ± 8.6e-06
G13U C71A	0.000178 ± 1.7e-05	0.000151 ± 2.5e-05			5.95e-05 ± 1.2e-05	1130 ± 300	0.000154 ± 1.8e-05
A39U C67U	0.0107 ± 0.0018	0.00631 ± 0.001	0.000223 ± 1.9e-05	0.000573 ± 8.1e-05	0.00228 ± 0.00025	2220 ± 500	0.00878 ± 0.00079
